Patent US20010000783A1, “Treatment of interstitial cystitis” (priority 1998, published 2001)

Columns and labels:
Type in all cases: cell-based
[1] = test system: Normal human bladder epithelial cells; assay: Inhibition of APF activity by recombinant growth factors, low molecular weight urine fractions, 3H-thymidine incorporation
Procedure: (§1) Primary normal adult human bladder epithelial (HBE) cells were cultured by the method described above in Part II. On the third day of incubation, cell medium was replaced by serum free MEM containing the less than 3 kDa fraction (i.e, containing the APF) of urine specimens from IC patients or controls (i.e., that part containing the anti-proliferative factor or APF described in related application Ser. No. 08/944,202), or HPLC-purified APF or its mock control along with varying concentrations of recombinant HB-EGF (0-100 ng/ml), EGF (0-100 ng/ml), or IGF-1 (0-300 pg/ml) [all from R & D Systems, Minneapolis, Minn.] diluted in phosphate buffered saline (1:1:1). Urine was prepared by the method described above in Part II and HPLC purified APF was prepared as described above. Following an additional 48 hours of incubation at 37 degrees C. in a 5% CO2 atmosphere, cell proliferation was assessed by ^3H-thymidine incorporation according to the published methods^38.
Normal human bladder epithelial cells were exposed simultaneously to recombinant human growth factors (HB-EGF, EGF, or IGF1) and low molecular weight fractions from IC patients or control urine specimens. Cell proliferation was determined 48 hours later by 3H-thymidine incorporation (FIGS. 6A-6C). Bar values indicate the mean of 5-8 determinations. Vertical lines indicate the standard error of the mean.

[2] = test system: primary human bladder epithelial cells grown from normal bladder tissue; assay: Inhibition of HPLC-purified APF activity by rhHB-EGF, 3H-thymidine incorporation, cells from normal bladder tissue; details: 10 pg/10^7 cells HPLC-purified APF, 48 hours; cells from controls; FIG. 10A
Procedure: as §1
(§2) Cell proliferation was determined 48 hours later by 3H-thymidine incorporation. Bar values indicate the mean of triplicate determinations. Vertical lines indicate the standard of error of the mean.

[3] = test system: primary human bladder epithelial cells grown from IC patient biopsy specimens; assay: Inhibition of HPLC-purified APF activity by rhHB-EGF, 3H-thymidine incorporation, cells from IC patient biopsies; details: 10 pg/10^7 cells HPLC-purified APF, 48 hours; cells from IC patients; FIG. 10B
Procedure: as §1, §2

B1: heparin-binding epidermal growth factor-like growth factor (protein, UniProt Q99075 63-148, looked up)
Heparin-binding EGF-like …: DLQEADLDLLRVTLSSKPQALATPNKEEHGKRKKKGKGLGKKRDPCLRKYKDFCIHGECKYVKELRAPSCICHPGYHGERCHGLSL
proliferation of cells exposed to urine from IC patients ([1]; high concentrations of rhHB-EGF, compared with cells exposed to control urines, FIG. 6A): stimulated, more than that of cells exposed to control urines | inhibition of APF antiproliferative activity ([1]; simultaneous exposure to recombinant growth factor and <3 kDa urine fraction, 48 hours, HB-EGF 0-100 ng/ml (effect evident at 10 ng/ml), EGF 0-100 ng/ml, IGF-1 0-300 pg/ml, FIGS. 6A-6C): resulted in inhibition of APF antiproliferative activity | inhibition of APF's antiproliferative effects [2]: can inhibit APF's antiproliferative effects | inhibition of APF's antiproliferative effects [3]: can inhibit APF's antiproliferative effects
